First the molecules themselves.
B1: PVR-Ig fusion protein (Fc fusion, UniProt P15151 27-343, looked up)
chain: GDVVVQAPTQVPGFLGDSVTLPCYLQVPNMEVTHVSQLTWARHGESGSMAVFHQTQGPSYSESKRLEFVAARLGAELRNASLRMFGLRVEDEGNYTCLFVTFPQGSRSVDIWLRVLAKPQNTAEVQKVQLTGEPVPMARCVSTGGRPPAQITWHSDLGGMPNTSQVPGFLSGTVTVTSLWILVPSSQVDGKNVTCKVEHESFEKPQLLTVNLTVYYPPEVSISGYDNNWYLGQNEATLTCDARSNPEPTGYNWSTTMGPLPPFAVAQGAQLLIRPVDKPINTTLICNVTNALGARQAELTVQVKEGPPSEHSGISRN
notes: Bought (R&D Systems); also called PVR-Ig protein; not shown: Ig part, detected with anti-human IgG Fc

Assay [1] concerns the target T1, KIR2DL5A*005 allele expressed on 3T3 cells (human).
T1 construct: also called 2D5A*005
Description: flow cytometry, PVR-Ig on 3T3 cells expressing KIR2DL5 alleles. The procedure:
(§1) FIG. 10A-E: Allelic polymorphism affected PVR binding of KIR2DL5. (A) Flow cytometric analysis of PVR-Ig or CD112-Ig (open) or control hIg (shaded) binding to KIR2DL5/3T3. (B) Flow cytometric analysis of PVR-Ig binding to KIR2DL5/3T3 in the presence of increasing concentrations of F8B30. (C) KIR2DL5 bound to different sites of PVR from other receptors. PVR-Ig protein was preincubated with indicated His-tagged protein and then stained KIR2DL5/3T3 cells. […] (D) Flow cytometric analysis of PVR-Ig (open) or control hIg (shaded) binding on 3T3 cells expressing WT, DO-deleted, or D2-deleted KIR2DL5. Parental 3T3 cells were used as a negative control. (E) Flow cytometric analysis of PVR-Ig or control hIg (shaded) binding on 3T3 cells expressing different KIR2DL5 alleles. In A-E, data are representative of 2 independent experiments.
(§2) Fusion protein cell binding assays. PVR-Ig, CD112-Ig, or hIgG (R&D Systems) was incubated with corresponding 3T3 cells on ice for 45 minutes, followed by incubation with APC- or PE-conjugated anti-human IgG Fc antibody (1:100; clone HP6017, BioLegend) on ice for 30 minutes. Cells were then acquired on an LSR II flow cytometer (BD Biosciences). In the anti-KIR2DL5 mAb blocking assay, KIR2DL5/3T3 cells were preincubated with a serial concentration of anti-KIR2DL5 mAb F8B30 or mIgG1 on ice for 30 minutes. […]

Assay [2] concerns the target T2, KIR2DL4 expressed on 3T3 cells (human, UniProt Q99706 22-377).
T2 construct: whole, on cells; also called KIR2DL4/3T3
Description: flow cytometry, PVR-Ig titrated on KIR2DL4/3T3. The procedure: Specifically, a cell-based binding assay was performed by incubating PVR-Ig fusion protein with KIR2DL5- or KIR2DL4-expressing 3T3 cells. Conversely, KIR2DL5 was selectively bound by PVR, but not by CD112 (also known as nectin-2), another ligand for TIGIT and DNAM-1 in the nectin/nectin-like family (FIG. 10A). Furthermore, anti-KIR2DL5 mAb F8B30 blocked KIR2DL5-PVR interaction (EC₅₀=0.095 μM) (FIG. 10B). The specificity of KIR2DL5 binding to PVR was also evidenced by an intercellular interaction assay, in which 3T3 cells expressing PVR interacted with 3T3 cells expressing KIR2DL5, but not with cells expressing KIR3DL3 (FIG. 18B), a newly identified inhibitory receptor of HHLA2 (Zang, 2022; Wei 2021; Bhatt 2021).
(§3) Fusion protein cell binding assays. PVR-Ig, CD112-Ig, or hIgG (R&D Systems) was incubated with corresponding 3T3 cells on ice for 45 minutes, followed by incubation with APC- or PE-conjugated anti-human IgG Fc antibody (1:100; clone HP6017, BioLegend) on ice for 30 minutes. Cells were then acquired on an LSR II flow cytometer (BD Biosciences). In the anti-KIR2DL5 mAb blocking assay, KIR2DL5/3T3 cells were preincubated with a serial concentration of anti-KIR2DL5 mAb F8B30 or mIgG1 on ice for 30 minutes. After washing, the cells were then incubated with 20 μg/mL PVR-Ig or hIgG on ice for 45 minutes, followed by incubation with APC anti-human IgG Fc antibody on ice for 30 minutes. […]
(In general: A flow cytometer gives signals particle by particle.)

Assay [3] has as its target T3, KIR2DL5 wild type (KIR2DL5A*001) expressed on cells (human, UniProt Q8N109 22-375).
T3 construct: UniProtKB Q8N109 and NP_065396.1 are printed for this entry; In the SHP-1/SHP-2 co-immunoprecipitation the cells were treated with pervanadate and the receptor was tyrosine-phosphorylated; also called KIR2DL5/3T3; WT KIR2DL5
Description: flow cytometry, fusion protein on KIR2DL5/3T3, anti-human IgG Fc detection. On the procedure:
PVR-Ig protein was preincubated with indicated His-tagged protein and then stained KIR2DL5/3T3 cells. […] (D) Flow cytometric analysis of PVR-Ig (open) or control hIg (shaded) binding on 3T3 cells expressing WT, DO-deleted, or D2-deleted KIR2DL5. Parental 3T3 cells were used as a negative control. (E) Flow cytometric analysis of PVR-Ig or control hIg (shaded) binding on 3T3 cells expressing different KIR2DL5 alleles. In A-E, data are representative of 2 independent experiments.
as §3

In the assay “PVR-Ig fusion protein” the target is B1. Description: flow cytometry, PVR-Ig on 3T3 cells expressing KIR2DL5 alleles. The procedure: as §1, §2

T2 sequence (Q99706 22-377): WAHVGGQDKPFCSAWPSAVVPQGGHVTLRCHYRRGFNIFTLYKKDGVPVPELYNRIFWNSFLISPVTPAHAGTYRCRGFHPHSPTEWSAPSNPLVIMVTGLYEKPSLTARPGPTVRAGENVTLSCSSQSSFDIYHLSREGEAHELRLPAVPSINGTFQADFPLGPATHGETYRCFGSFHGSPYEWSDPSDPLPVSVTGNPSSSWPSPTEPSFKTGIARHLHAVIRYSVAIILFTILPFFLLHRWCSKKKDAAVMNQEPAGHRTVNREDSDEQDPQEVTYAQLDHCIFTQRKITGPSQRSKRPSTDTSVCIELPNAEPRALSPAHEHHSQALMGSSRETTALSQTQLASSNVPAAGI

As for B1, the figures for the binding result in assay [1] and in assay [2] were “no binding” and “no binding (tested: 1.28 µM)”, respectively.

B2: CD112-Ig fusion protein (Fc fusion, UniProt Q92692 32-360, looked up)
chain: QDVRVQVLPEVRGQLGGTVELPCHLLPPVPGLYISLVTWQRPDAPANHQNVAAFHPKMGPSFPSPKPGSERLSFVSAKQSTGQDTEAELQDATLALHGLTVEDEGNYTCEFATFPKGSVRGMTWLRVIAKPKNQAEAQKVTFSQDPTTVALCISKEGRPPARISWLSSLDWEAKETQVSGTLAGTVTVTSRFTLVPSGRADGVTVTCKVEHESFEEPALIPVTLSVRYPPEVSISGYDDNWYLGRTDATLSCDVRSNPEPTGYDWSTTSGTFPTSAVAQGSQLVIHAVDSLFNTTFVCTVTNAVGMGRAEQVIFVRETPNTAGAGATGG
notes: Bought (R&D Systems); also called nectin-2; not shown: Ig part, detected with anti-human IgG Fc
With B2, the binding result in assay [3] is recorded as “no binding”.

B3: KIR2DL5B*003 allele expressed on 3T3 cells (receptor)
chain: HEGGQDKPLLSAWPSAVVPRGGHVTLLCRSRLGFTIFSLYKEDGVPVPELYNKIFWKSILMGPVTPAHAGTYRCRGSHPRSPIEWSAPSNPLVIMVTGLFGKPSLSAQPGPTVRTGENVTLSCSSRSSFDMYHLSREGRAHEPRLPAVPSVNGTFQADFPLGPATHGGTYTCFGSLHDSPYEWSDPSDPLLVSVTGNSSSSSSSPTEPSSKTGIRRHLHILIGTSVAIILFIILFFFLLHCCCSNKKNAAVMDQEPAGDRTVNREDSDDQDPQEVTYAQLDHCVFTQTKITSPSQRPKTPPTDTTMYMELPNAKPRSLSPAHKHHSQALRGSSRETTALSQNRVASSHVPAAGI
For B3, in the assay with PVR-Ig fusion protein, the binding result is reported as “no binding”.

(Values after patent US20250019435A1 (ALBERT EINSTEIN COLLEGE OF MEDICINE, published 2025).)
